# Laboratory results published in patent US20250000976A1 (NATIONAL RESEARCH COUNCIL OF CANADA, published 2025).
# Where a chain is given by its changes, count along the chain named.
# T1: BCMA_B6x Met1_Ala43 (human, UniProt Q02223)
# T1 construct: limits given in the sample name
# T1 yeast-displayed fusion (looked up): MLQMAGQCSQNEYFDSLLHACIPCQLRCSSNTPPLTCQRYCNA
# T2: BCMA_B17x Ile22_Tyr40 (human, UniProt Q02223)
# T2 construct: limits given in the sample name
# T2 yeast-displayed fusion (looked up): IPCQLRCSSNTPPLTCQRY
# T3: BCMA_B19x Arg27_Ala43 (human, UniProt Q02223)
# T3 construct: limits given in the sample name
# T3 yeast-displayed fusion (looked up): RCSSNTPPLTCQRYCNA
# T4: BCMA_B4x Arg27_Ala54 (human, UniProt Q02223)
# T4 construct: limits given in the sample name
# T4 yeast-displayed fusion (looked up): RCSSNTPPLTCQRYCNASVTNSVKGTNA
# T5: BCMA_B14x Gly6_Pro23 (C21S) (human, UniProt Q02223)
# T5 construct: limits and substitution as printed in the sample name
# T5 yeast-displayed fusion (looked up): GQCSQNEYFDSLLHASIP
# T6: BCMA_B8x Met1_Pro23 (human, UniProt Q02223)
# T6 construct: limits given in the sample name
# T6 yeast-displayed fusion (looked up): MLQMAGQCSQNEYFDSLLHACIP
# T7: BCMA_B3x Ile22_Ala54 (human, UniProt Q02223)
# T7 construct: limits given in the sample name
# T7 yeast-displayed fusion (looked up): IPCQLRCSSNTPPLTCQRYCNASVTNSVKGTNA
# T8: BCMA_B9x Met1_Asp15 (human, UniProt Q02223)
# T8 construct: limits given in the sample name
# T8 yeast-displayed fusion (looked up): MLQMAGQCSQNEYFD
# T9: BCMA_B15x Ile22_Ala43 (human, UniProt Q02223)
# T9 construct: limits given in the sample name
# T9 yeast-displayed fusion (looked up): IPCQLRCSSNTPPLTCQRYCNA
# T10: hBCMA fragment Gly6-Tyr40 displayed on yeast (Aga2-HA-(hBCMA)-MYC) (human, UniProt Q02223 6-40)
# T10 construct: range 6-40; not shown: Aga2-HA N-terminal fusion partner of the pPNL6 yeast display vector; C-terminal MYC tag
# T10 chain (looked up): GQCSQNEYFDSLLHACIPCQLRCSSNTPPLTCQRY
# T11: BCMA_B20x Arg27_Ala43 (C41S) (human, UniProt Q02223)
# T11 construct: limits and substitution as printed in the sample name
# T11 yeast-displayed fusion (looked up): RCSSNTPPLTCQRYSNA
# T12: hBCMA-ECD-FC5VHH (human, UniProt Q02223 1-54, biotinylated in vivo ; biotinylated in vivo on the tag of the carrier part, which is not in the letters)
# T12 construct: Made in HEK-293 cells, monomeric SEC fraction; The methods say about 500 RU captured on an SA chip; the results say immobilised on a CM5 chip; also called hBCMA-FC5; human BCMA-ECD; not shown: FC5 VHH carrier, any linker, and the His and biotinylation tags
# T12 sequence: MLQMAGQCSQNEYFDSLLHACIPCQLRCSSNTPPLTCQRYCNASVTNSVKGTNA
# T13: BCMA_B18x Ile22_Tyr40 (C37S) (human, UniProt Q02223)
# T13 construct: limits and substitution as printed in the sample name
# T13 yeast-displayed fusion (looked up): IPCQLRCSSNTPPLTSQRY
# T14: BCMA_B10x Gly6_Ala43 (human, UniProt Q02223)
# T14 construct: limits given in the sample name
# T14 yeast-displayed fusion (looked up): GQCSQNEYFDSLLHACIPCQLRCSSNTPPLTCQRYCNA
# T15: BCMA_B22x Arg27_Tyr40 (C37S) (human, UniProt Q02223)
# T15 construct: limits and substitution as printed in the sample name
# T15 yeast-displayed fusion (looked up): RCSSNTPPLTSQRY
# B1: hBCMA-H2 (VHH)
# VHH: QVKAEESGGGLVRPGDSLRLTCTISGRTSNNFVMAWFRRTPGKEREYVATRVWSGSTPYYHDSVKGRFTISIDDDKNTAYLQMNSLKPEDTAVYYCAATKDIMSRSYDYWGLGTQVTVSS
# modifications: single biotin on the C-terminal AviTag
# notes: also called VHH-H2; not shown: C-terminal His tag and AviTag biotinylation signal from pMRO vector
# B2: hBCMA-H4 (VHH)
# VHH: QVQLVESGGGLVQPGGSLRLSCAASGDSFGAYAMGWYRQAPGKQRELVAAISSAGNTFYRDSVKGRFTVSRNNAKNAMYLQMDRLKPEDTAVYQCNGAPWADEPVKVWNWGLGTQVTVSS
# modifications: single biotin on the C-terminal AviTag
# notes: also called VHH-H4; not shown: C-terminal His tag and AviTag biotinylation signal from pMRO vector
# B3: hBCMA-A6 (VHH)
# VHH: QVQLVESGGGLVQPGGSLRLSCVASGSIFDAYNMGWYRQAPGKQRELVAAISSAGTTFYRDSVKGRFTVSRNNAKNTMYLQMDRLRPEDTAVYDCNGAPWGDAPVKVEDWGQGTQVTVSS
# modifications: single biotin on the C-terminal AviTag
# notes: also called VHH-A6; not shown: C-terminal His tag and AviTag biotinylation signal from pMRO vector
# B4: hBCMA-VcMRo8(VF7/VF8) (VHH)
# VHH: QVQLVESGGGLVQPGGSLRLSCAASGTIFSRNALAWFRQAPGKQRELVAHITIGGTTVYKDSVKGRFTISRDNAKNTVYLQMDALKPEDTAVYYCNADPEGSWNWVRRGDYWGQGTQVTVS
# modifications: single biotin on the C-terminal AviTag
# notes: also called V8; hBCMA-V8; not shown: C-terminal His tag and AviTag biotinylation signal from pMRO vector
# B5: hBCMA-VcMRo3 (V3) (VHH)
# VHH: EVQLEQSGGGLVQTGDSLRLTCTIPGRASNHFVMAWFRRAPGKEREFVATRVWSGGSPYYSDSVKGRFAIAIDNAKNTAYLQMNSLKPEDTAVYYCAATKDIMSRSYDYWGLGTQVTVSS
# modifications: single biotin on the C-terminal AviTag
# notes: also called hBCMA-V3; not shown: C-terminal His tag and AviTag biotinylation signal from pMRO vector
# B6: hBCMA-E7 (VHH)
# VHH: B5 VHH with E1Q, E5V, Q6E, T21A, P25S, S29T, N30D, F47Y, S61L, S85N
# modifications: single biotin on the C-terminal AviTag
# notes: Llama VHH made in E. coli BL21(DE3), IMAC purified, monomeric SEC fraction used; also called VHH-E7; VHH # 1-B1; not shown: C-terminal His tag and AviTag biotinylation signal from pMRO vector
# Target: T1, BCMA_B6x Met1_Ala43
# Assay: yeast cell ELISA, sample BCMA_B6x Met1_Ala43
# Experimental: (§1) The YSD vector (pPNL6) was from The Pacific Northwest National Laboratory, USA. […] The HRP activity was assayed with substrate TMB (tetramethyl benzidine) according to the manufacture's conditions and read at OD₄₅₀.
# (§2) The assays were performed as described in the Materials and Method, and OD₄₅₀ was measured. Note that OD₄₅₀ reads equal or less than 0.100 were scored as zero for clarity.
row,OD450,Binder
1,2.41,B1
2,2.62,B2
3,2.8,B3
4,2.33,B4
5,2.65,B5
6,2.19,B6

# Target: T2, BCMA_B17x Ile22_Tyr40
# Assay: yeast cell ELISA, sample BCMA_B17x Ile22_Tyr40
# Experimental: as §1, §2
row,binding result,Binder
1,no binding,B1
2,no binding,B2
3,no binding,B3
4,no binding,B4
5,no binding,B5
6,no binding,B6

# Target: T3, BCMA_B19x Arg27_Ala43
# Assay: yeast cell ELISA, sample BCMA_B19x Arg27_Ala43
# Experimental: as §1, §2
row,binding result,Binder
1,no binding,B1
2,no binding,B2
3,no binding,B3
4,no binding,B4
5,no binding,B5
6,no binding,B6

# Target: T4, BCMA_B4x Arg27_Ala54
# Assay: yeast cell ELISA, sample BCMA_B4x Arg27_Ala54
# Experimental: as §1, §2
row,binding result,Binder
1,no binding,B1
2,no binding,B2
3,no binding,B3
4,no binding,B4
5,no binding,B5
6,no binding,B6

# Target: T5, BCMA_B14x Gly6_Pro23 (C21S)
# Assay: yeast cell ELISA, sample BCMA_B14x Gly6_Pro23 (C21S)
# Experimental: as §1, §2
row,binding result,Binder
1,no binding,B1
2,no binding,B2
3,no binding,B3
4,no binding,B4
5,no binding,B5
6,no binding,B6

# Target: T6, BCMA_B8x Met1_Pro23
# Assay: yeast cell ELISA, sample BCMA_B8x Met1_Pro23
# Experimental: as §1, §2
OD450,binding result,Binder
2.89,,B1
,no binding,B2
,no binding,B3
,no binding,B4
2.09,,B5
2.45,,B6

# Target: T7, BCMA_B3x Ile22_Ala54
# Assay: yeast cell ELISA, sample BCMA_B3x Ile22_Ala54
# Experimental: as §1, §2
row,binding result,Binder
1,no binding,B1
2,no binding,B2
3,no binding,B3
4,no binding,B4
5,no binding,B5
6,no binding,B6

# Target: T8, BCMA_B9x Met1_Asp15
# Assay: yeast cell ELISA, sample BCMA_B9x Met1_Asp15
# Experimental: as §1, §2
row,binding result,Binder
1,no binding,B1
2,no binding,B2
3,no binding,B3
4,no binding,B4
5,no binding,B5
6,no binding,B6

# Target: T9, BCMA_B15x Ile22_Ala43
# Assay: yeast cell ELISA, sample BCMA_B15x Ile22_Ala43
# Experimental: as §1, §2
row,binding result,Binder
1,no binding,B1
2,no binding,B2
3,no binding,B3
4,no binding,B4
5,no binding,B5
6,no binding,B6

# Target: T10, hBCMA fragment Gly6-Tyr40 displayed on …
# Assay: yeast cell ELISA, sample BCMA_B11x Gly6_Tyr40
# Experimental: as §1, §2
row,OD450,Binder
1,3.5,B1
2,2.42,B2
3,2.44,B3
4,2.61,B4
5,2.74,B5
6,3.57,B6

# Target: T11, BCMA_B20x Arg27_Ala43 (C41S)
# Assay: yeast cell ELISA, sample BCMA_B20x Arg27_Ala43 (C41S)
# Experimental: as §1, §2
row,binding result,Binder
1,no binding,B1
2,no binding,B2
3,no binding,B3
4,no binding,B4
5,no binding,B5
6,no binding,B6

# Target: T12, hBCMA-ECD-FC5VHH
# Assay: SPR (Biacore T200), VHH 20-500 nM over BCMA-ECD surface, 25 C
# Experimental: For surface Plasmon resonance, 15 selected VHHs were passed though size exclusion columns, Superdex 75 (GE Healthcare), respectively, in 10 mM HEPES, pH 7.4, containing 150 mM NaCl, 3 mM EDTA, monomeric sdAb fractions were collected and protein concentrations were determined by measuring absorbance at 280 nm (A280). Analysis were performed with Biacore T200 instrument (GE Healthcare). All measurements were carried out at 25° C. in 10 mM HEPES, pH 7.4, containing 150 mM NaCl, 3 mM EDTA and 0.005% surfactant P20 (GE Healthcare). Approximately 500 RUs of the recombinant monomeric BCMA-ECD (obtained after SEC purification of the BCMA-ECD-FC5VHH) were captured on SA sensor chip (GE Healthcare) at a flow rate of 5 uL/min. Various concentration of the monomeric VHHs (20-500 nM) were injected over BCMA-ECD surface, respectively using an SA surface as a reference at a flow rate of 40 μL/min. Surfaces were generated by washing with running buffer. Data were analysed with BIAevaluation 4.1 software.
# The monomeric fraction of all 15 VHHs were used for SPR experiment where the human BCMA-ECD or mouse BCMA was immobilized onto the CM5 dextran chip and various VHH concentration (20-500 nM) were passed over the sensor chip.
Kd [nM],koff [s⁻¹],kon [M⁻¹ s⁻¹],Binder
0.0801,0.000343,4.28e+06,B1
0.379,0.000509,1.34e+06,B2
4.62,0.0109,2.36e+06,B3
0.0846,0.00125,1.48e+07,B4
0.564,0.000239,424000,B5
0.0462,0.000179,3.88e+06,B6

# Target: T13, BCMA_B18x Ile22_Tyr40 (C37S)
# Assay: yeast cell ELISA, sample BCMA_B18x Ile22_Tyr40 (C37S)
# Experimental: as §1, §2
row,binding result,Binder
1,no binding,B1
2,no binding,B2
3,no binding,B3
4,no binding,B4
5,no binding,B5
6,no binding,B6

# Target: T14, BCMA_B10x Gly6_Ala43
# Assay: yeast cell ELISA, sample BCMA_B10x Gly6_Ala43
# Experimental: as §1, §2
row,OD450,Binder
1,2.6,B1
2,2.23,B2
3,1.66,B3
4,2.32,B4
5,2.69,B5
6,1.8,B6

# Target: T15, BCMA_B22x Arg27_Tyr40 (C37S)
# Assay: yeast cell ELISA, sample BCMA_B22x Arg27_Tyr40 (C37S)
# Experimental: as §1, §2
row,binding result,Binder
1,no binding,B1
2,no binding,B2
3,no binding,B3
4,no binding,B4
5,no binding,B5
6,no binding,B6
